Experimental findings from paper PMC13385800 (2026) are described below.

First the molecules themselves.
B1: EGFP-ANKRD11 full length (FL), wild type [not stated] / endogenous TBLR1 of HEK293T cells and of wild-type Flp-In T-REx 293 cells [human (endogenous in HEK293T and Flp-In T-REx 293)] (parent complex)
chain 1: MPKGGCPKAPQQEELPLSSDMVEKQTGKKDKDKVSLTKTPKLERGDGGKEVRERASKRKLPFTAGANGEQKDSDTEKQGPERKRIKKEPVTRKAGLLFGMGLSGIRAGYPLSERQQVALLMQMTAEESANSPVDTTPKHPSQSTVCQKGTPNSASKTKDKVNKRNERGETRLHRAAIRGDARRIKELISEGADVNVKDFAGWTALHEACNRGYYDVAKQLLAAGAEVNTKGLDDDTPLHDAANNGHYKVVKLLLRYGGNPQQSNRKGETPLKVANSPTMVNLLLGKGTYTSSEESSTESSEEEDAPSFAPSSSVDGNNTDSEFEKGLKHKAKNPEPQKATAPVKDEYEFDEDDEQDRVPPVDDKHLLKKDYRKETKSNSFISIPKMEVKSYTKNNTIAPKKASHRILSDTSDEEDASVTVGTGEKLRLSAHTILPGSKTREPSNAKQQKEKNKVKKKRKKETKGREVRFGKRSDKFCSSESESESSESGEDDRDSLGSSGCLKGSPLVLKDPSLFSSLSASSTSSHGSSAAQKQNPSHTDQHTKHWRTDNWKTISSPAWSEVSSLSDSTRTRLTSESDYSSEGSSVESLKPVRKRQEHRKRASLSEKKSPFLSSAEGAVPKLDKEGKVVKKHKTKHKHKNKEKGQCSISQELKLKSFTYEYEDSKQKSDKAILLENDLSTENKLKVLKHDRDHFKKEEKLSKMKLEEKEWLFKDEKSLKRIKDTNKDISRSFREEKDRSNKAEKERSLKEKSPKEEKLRLYKEERKKKSKDRPSKLEKKNDLKEDKISKEKEKIFKEDKEKLKKEKVYREDSAFDEYCNKNQFLENEDTKFSLSDDQRDRWFSDLSDSSFDFKGEDSWDSPVTDYRDMKSDSVAKLILETVKEDSKERRRDSRAREKRDYREPFFRKKDRDYLDKNSEKRKEQTEKHKSVPGYLSEKDKKRRESAEAGRDRKDALESCKERRDGRAKPEEAHREELKECGCESGFKDKSDGDFGKGLEPWERHHPAREKEKKDGPDKERKEKTKPERYKEKSSDKDKSEKSILEKCQKDKEFDKCFKEKKDTKEKHKDTHGKDKERKASLDQGKEKKEKAFPGIISEDFSEKKDDKKGKEKSWYIADIFTDESEDDRDSCMGSGFKMGEASDLPRTDGLQEKEEGREAYASDRHRKSSDKQHPERQKDKEPRDRRKDRGAADAGRDKKEKVFEKHKEKKDKESTEKYKDRKDRASVDSTQDKKNKQKLPEKAEKKHAAEDKAKSKHKEKSDKEHSKERKSSRSADAEKSLLEKLEEEALHEYREDSNDKISEVSSDSFTDRGQEPGLTAFLEVSFTEPPGDDKPRESACLPEKLKEKERHRHSSSSSKKSHDRERAKKEKAEKKEKGEDYKEGGSRKDSGQYEKDFLEADAYGVSYNMKADIEDELDKTIELFSTEKKDKNDSEREPSKKIEKELKPYGSSAINILKEKKKREKHREKWRDEKERHRDRHADGLLRHHRDELLRHHRDEQKPATRDKDSPPRVLKDKSRDEGPRLGDAKLKEKFKDGAEKEKGDPVKMSNGNDKVAPSKDPGKKDARPREKLLGDGDLMMTSFERMLSQKDLEIEERHKRHKERMKQMEKLRHRSGDPKLKEKAKPADDGRKKGLDIPAKKPPGLDPPFKDKKLKESTPIPPAAENKLHPASGADSKDWLAGPHMKEVLPASPRPDQSRPTGVPTPTSVLSCPSYEEVMHTPRTPSCSADDYADLVFDCADSQHSTPVPTAPTSACSPSFFDRFSVASSGLSENASQAPARPLSTNLYRSVSVDIRRTPEEEFSVGDKLFRQQSVPAASSYDSPMPPSMEDRAPLPPVPAEKFACLSPGYYSPDYGLPSPKVDALHCPPAAVVTVTPSPEGVFSSLQAKPSPSPRAELLVPSLEGALPPDLDTSEDQQATAAIIPPEPSYLEPLDEGPFSAVITEEPVEWAHPSEQALASSLIGGTSENPVSWPVGSDLLLKSPQRFPESPKRFCPADPLHSAAPGPFSASEAPYPAPPASPAPYALPVAEPGLEDVKDGVDAVPAAISTSEAAPYAPPSGLESFFSNCKSLPEAPLDVAPEPACVAAVAQVEALGPLENSFLDGSRGLSHLGQVEPVPWADAFAGPEDDLDLGPFSLPELPLQTKDAADGEAEPVEESLAPPEEMPPGAPGVINGGDVSTVVAEEPPALPPDQASTRLPAELEPEPSGEPKLDVALEAAVEAETVPEERARGDPDSSVEPAPVPPEQRPLGSGDQGAEAEGPPAASLCAPDGPAPNTVAQAQAADGAGPEDDTEASRAAAPAEGPPGGIQPEAAEPKPTAEAPKAPRVEEIPQRMTRNRAQMLANQSKQGPPPSEKECAPTPAPVTRAKARGSEDDDAQAQHPRKRRFQRSTQQLQQQLNTSTQQTREVIQQTLAAIVDAIKLDAIEPYHSDRANPYFEYLQIRKKIEEKRKILCCITPQAPQCYAEYVTYTGSYLLDGKPLSKLHIPVIAPPPSLAEPLKELFRQQEAVRGKLRLQHSIEREKLIVSCEQEILRVHCRAARTIANQAVPFSACTMLLDSEVYNMPLESQGDENKSVRDRFNARQFISWLQDVDDKYDRMKTCLLMRQQHEAAALNAVQRMEWQLKVQELDPAGHKSLCVNEVPSFYVPMVDVNDDFVLLPA
chain 2: MSISSDEVNFLVYRYLQESGFSHSAFTFGIESHISQSNINGALVPPAALISIIQKGLQYVEAEVSINEDGTLFDGRPIESLSLIDAVMPDVVQTRQQAYRDKLAQQQAAAAAAAAAAASQQGSAKNGENTANGEENGAHTIANNHTDMMEVDGDVEIPPNKAVVLRGHESEVFICAWNPVSDLLASGSGDSTARIWNLSENSTSGSTQLVLRHCIREGGQDVPSNKDVTSLDWNSEGTLLATGSYDGFARIWTKDGNLASTLGQHKGPIFALKWNKKGNFILSAGVDKTTIIWDAHTGEAKQQFPFHSAPALDVDWQSNNTFASCSTDMCIHVCKLGQDRPIKTFQGHTNEVNAIKWDPTGNLLASCSDDMTLKIWSMKQDNCVHDLQAHNKEIYTIKWSPTGPGTNNPNANLMLASASFDSTVRLWDVDRGICIHTLTKHQEPVYSVAFSPDGRYLASGSFDKCVHIWNTQTGALVHSYRGTGGIFEVCWNAAGDKVGASASDGSVCVLDLRK
B2: TBLR1-LgBiT wild type [not stated] / ANKRD11-SmBiT [not stated] (parent complex)
chain 1: B1 chain 2
chain 2: B1 chain 1
B3: TBLR1-LgBiT wild type [not stated] / SETD5-SmBiT [not stated] (parent complex)
chain 1: B1 chain 2
chain 2: MSIAIPLGVTTSDTSYSDMAAGSDPESVEASPAVNEKSVYSTHNYGTTQRHGCRGLPYATIIPRSDLNGLPSPVEERCGDSPNSEGETVPTWCPCGLSQDGFLLNCDKCRGMSRGKVIRLHRRKQDNISGGDSSATESWDEELSPSTVLYTATQHTPTSITLTVRRTKPKKRKKSPEKGRAAPKTKKIKNSPSEAQNLDENTTEGWENRIRLWTDQYEEAFTNQYSADVQNALEQHLHSSKEFVGKPTILDTINKTELACNNTVIGSQMQLQLGRVTRVQKHRKILRAARDLALDTLIIEYRGKVMLRQQFEVNGHFFKKPYPFVLFYSKFNGVEMCVDARTFGNDARFIRRSCTPNAEVRHMIADGMIHLCIYAVSAITKDAEVTIAFDYEYSNCNYKVDCACHKGNRNCPIQKRNPNATELPLLPPPPSLPTIGAETRRRKARRKELEMEQQNEASEENNDQQSQEVPEKVTVSSDHEEVDNPEEKPEEEKEEVIDDQENLAHSRRTREDRKVEAIMHAFENLEKRKKRRDQPLEQSNSDVEITTTTSETPVGEETKTEAPESEVSNSVSNVTIPSTPQSVGVNTRRSSQAGDIAAEKLVPKPPPAKPSRPRPKSRISRYRTSSAQRLKRQKQANAQQAELSQAALEEGGSNSLVTPTEAGSLDSSGENRPLTGSDPTVVSITGSHVNRAASKYPKTKKYLVTEWLNDKAEKQECPVECPLRITTDPTVLATTLNMLPGLIHSPLICTTPKHYIRFGSPFIPERRRRPLLPDGTFSSCKKRWIKQALEEGMTQTSSVPQETRTQHLYQSNENSSSSSICKDNADLLSPLKKWKSRYLMEQNVTKLLRPLSPVTPPPPNSGSKSPQLATPGSSHPGEEECRNGYSLMFSPVTSLTTASRCNTPLQFELCHRKDLDLAKVGYLDSNTNSCADRPSLLNSGHSDLAPHPSLGPTSETGFPSRSGDGHQTLVRNSDQAFRTEFNLMYAYSPLNAMPRADGLYRGSPLVGDRKPLHLDGGYCSPAEGFSSRYEHGLMKDLSRGSLSPGGERACEGVPSAPQNPPQRKKVSLLEYRKRKQEAKENSAGGGGDSAQSKSKSAGAGQGSSNSVSDTGAHGVQGSSARTPSSPHKKFSPSHSSMSHLEAVSPSDSRGTSSSHCRPQENISSRWMVPTSVERLREGGSIPKVLRSSVRVAQKGEPSPTWESNITEKDSDPADGEGPETLSSALSKGATVYSPSRYSYQLLQCDSPRTESQSLLQQSSSPFRGHPTQSPGYSYRTTALRPGNPPSHGSSESSLSSTSYSSPAHPVSTDSLAPFTGTPGYFSSQPHSGNSTGSNLPRRSCPSSAASPTLQGPSDSPTSDSVSQSSTGTLSSTSFPQNSRSSLPSDLRTISLPSAGQSAVYQASRVSAVSNSQHYPHRGSGGVHQYRLQPLQGSGVKTQTGLS

The first assay covers variants of B1. Briefly: co-immunoprecipitation, mass spectrometry; HEK293T cells; n = 3 independent transfections per mutant; read off a plot.
Take chain 1 R2523W: the screen value was around 5.7 log2.
As to chain 1 E2522K, the screen value is around 2.6 log2.
Same read-out and setting: with chain 1 S2475P the figure was around 8.3 log2; with chain 1 L2605R, around 8.2 log2.

In another assay the parent is B2. In words: NanoLuc complementation assay; n = 3–5 independent transfections per TBLR1 mutant; read off a plot.
In the case of chain 1 G29D, the ratio to parent is around 0.06.
The same measure, in the same setting: under chain 1 G70D stands around 0.07.
Turning to chain 1 L83Q, the ratio to parent is around 0.06.
With chain 1 F10L, the ratio to parent is around 0.1.
For the variant chain 1 E63K, the ratio to parent was around 0.37.

In a further assay the parent is B2. In words: co-immunoprecipitation, mass spectrometry; TBLR1-null Flp-In T-REx 293 cells; n = 3 independent transfections; read off a plot.
As to chain 1 G70D, the screen value was around 1.9 log2.

In another assay the parent is B3. Briefly: NanoLuc complementation assay; n = 6–7 independent transfections per TBLR1 mutant; read off a plot.
As to chain 1 G460D, the ratio to parent is around 0.07.
For chain 1 F270L, the ratio to parent was around 1.8.
On to chain 1 H441R, for which the ratio to parent is around 0.55.
Take chain 1 S417R: the ratio to parent was around 0.06.
For chain 1 Y446C, the ratio to parent is around 1.3.
On the same count and under the same terms, with chain 1 Y446D the figure was around 1.1; with chain 1 T321S, around 1.1.
chain 1 D328H: the ratio to parent is around 0.55.
Consider chain 1 D328G, for which the ratio to parent was around 0.6.
Regarding chain 1 H213Q, the ratio to parent is around 1.2.
Regarding chain 1 P444R, the ratio to parent is around 0.7.
As to chain 1 L282P, the ratio to parent is around 0.05.
chain 1 D370N: the ratio to parent is around 0.05.
On to chain 1 S459R, for which the ratio to parent is around 0.06.
For chain 1 D369E, the ratio to parent is around 0.15.
With chain 1 A311P, the ratio to parent was around 0.55.
Same read-out and setting: with chain 1 Y395C the figure was around 0.87; with chain 1 Y245C, around 1.2.

The variants in the next assay derive from B3. In words: co-immunoprecipitation, mass spectrometry; TBLR1-null Flp-In T-REx 293 cells; n = 3 independent transfections; read off a plot.
As to chain 1 D370N, the screen value was around 6.9 log2.
